{"source": "paper PMC2805770", "conditions": "phosphorylation at S656", "data": [{"substance": "synapsin-I: S656A", "values": [{"measurement": "localisation_or_trafficking", "value": "changes"}]}]}
